Experiments:
[1] = target: human α-thrombin (human), P00734; assay: amidolytic assay, 25° C.; from competitive inhibition at inhibitor above 20 nM (footnote c); non-competitive behaviour below 20 nM
[2] = target: human α-thrombin (human), P00734; assay: cell-based or functional assay
[3] = target: human α-thrombin (human), P00734; assay: amidolytic assay, Tos-Gly-Pro-Arg-pNA hydrolysis by human α-thrombin, 25° C.

Binder	Ki [1] [nM]	IC50 (DCT), clotting assay, 37° C.; recombinant peptide WD22-R-YP^(d) [2] [nM]	IC50 (DCT), clotting assay, 37° C.; synthetic peptide [2] [nM]	Ki [3] [nM]	IC50 (DCT), clotting assay, 37° C. [2] [nM]	IC50 (DCT), clotting assay, 37° C.; recombinant peptide WD22-R-P^(d) [2] [nM]
WDPRPQLHNDGDFEPIPEEYLQ (modifications not checked) [WD22-L-P]	–	–	–	39	26	–
FNPRP (modifications not checked) [FN]	–	–	–	> 2000	> 100000	–

Next, values leading:

Ki [1] [nM]	IC50 (DCT), clotting assay, 37° C.; recombinant peptide WD22-R-YP^(d) [2] [nM]	IC50 (DCT), clotting assay, 37° C.; synthetic peptide [2] [nM]	Ki [3] [nM]	IC50 (DCT), clotting assay, 37° C. [2] [nM]	IC50 (DCT), clotting assay, 37° C.; recombinant peptide WD22-R-P^(d) [2] [nM]	Binder
358	4.8	4.5	–	–	–	WDPRPQRHNDGDYEPIPEEYLQ (modifications not checked) [WD22-R-YP]
171	–	6.7	–	–	8.1	WDPRPQRHNDGDFEPIPEEYLQ (modifications not checked) [WD22-R-P]
